Consider eight molecules from patent US20220152100A1, “METHODS FOR CONTROLLED ACTIVATION OR ELIMINATION OF THERAPEUTIC CELLS” (Bellicum Pharmaceuticals, Inc., priority 2014, published 2022).

Changes are numbered by the printed parent chain. In names and notes the source's numbering stands. Entries after “also recorded” stand apart in the source; their conditions may differ. Where a SMILES comes first, the peptide text is derived from it. The star is where a group is joined. Cbz = O=C(OCc1ccccc1)*; CH2F = FC*

Data set [1] concerns EBV-specific CTL lines (EBV-CTL). The data set can be described thus: CID-induced elimination/apoptosis of transduced EBV-CTLs (GFP, annexin V/7-AAD flow cytometry). The settings on record: 100 μM for 1 hour prior to adding CID. In kind it is cell-based, human. A general note: Flow cytometry measures light scatter and fluorescence of single cells or particles in a stream.
The next data set concerns PG13. In kind it is cell-based. Particulars: for CD19 mean fluorescence intensity (MFI): PG13 cross-transduced five times; for viral titers: upon HAT media treatment, HT1080 cells.
The subject of the next data set is HEK293T/16 cells. Description: SEAP-based surrogate killing assay of iCasp9 mutants. In kind it is cell-based, human. The settings on record: for effect on basal / catalytic activity: in words, versus wild type. The protocol: Early passage HEK293T/16 cells (ATCC, Manassas, Va.) were maintained in IMDM, GlutaMAX™ (Life Technologies, Carlsbad, Calif.) supplemented with 10% FBS, 100 U/mL penicillin, and 100 […] until transfection in a humidified, 37° C., 5% CO2/95% air atmosphere. Cells in logarithmic-phase growth were transiently transfected with 800 ng to 2 μg of expression plasmid encoding iCasp9 mutants and 500 ng of an expression plasmid encoding SRα promoter driven SEAP per million cells in 15-mL conical tubes. […] GeneJammer® Transfection Reagent at a ratio of 3 μl per ug of plasmid DNA was used to transiently transfect HEK293T/16 cells in the absence of antibiotics. 100 μl or 2 mL of the transfection mixture was added to each well in 96-well or 6-well plate, respectively.
Briefly, after 65° C. heat denaturation for 45 minutes to reduce background caused by endogenous (and serum-derived) alkaline phosphatases that are sensitive to heat, 5 μl of supernatants was added to 95 μl of PBS and added to 100 μl of substrate buffer, containing 1 μl of 100 mM 4-methylumbelliferyl phosphate (4-MUP; Sigma, St. Louis, Mo.) re-suspended in 2 M diethanolamine. Hydrolysis of 4-MUP by SEAP produces a fluorescent […] with excitation/emission (355/460 nm), which can be easily measured. Assays were performed in black opaque 96-well plates to minimize fluorescence leakage between wells. […] of the mixture was seeded onto each well of a 96-well plate. […] For the assay, 4-methylumbelliferyl phosphate substrate was hydrolyzed by SEAP to 4-methylumbelliferon, a metabolite that can be excited with 364 nm and detected with an emission filter of 448 nm. Since SEAP is used as a marker for cell viability, reduced SEAP reading corresponds with increased iCaspase-9 activities.

In the next data set the test system is Primary T cells. Description: AP1903-dependent cytotoxicity in primary T cells transduced with iCasp9 variants (CD3+CD19+ flow cytometry). The settings on record: for killing of target T cells: AP1903 at Day 0 and day 4, within 10 days. In kind it is cell-based, human. The protocol:
The effects of various caspase polypeptides at mostly single copy in primary T cells was assayed. This may reflect more accurately how these suicide genes will be used therapeutically.
Primary T cells from healthy donors (n=6) were transduced with retrovirus encoding mutant or wild-type iCasp9 or iCasp9-D330A, and the ΔCD19 cell surface marker. Following transduction, iCasp9-transduced T cells were purified using CD19-microbeads and a magnetic column.

As to `COC(=O)C[C@H](NC(=O)[C@H](C)NC(=O)[C@@H](NC(=O)OCc1ccccc1)C(C)C)C(=O)CF` [zVAD-fmk] (Cbz-Val-Ala-Asp(OMe)-CH2F), the “effect on CID-induced apoptosis” value in data set [1] is “inhibited”.

B1: D330E: chimeric modified Caspase-9 polypeptide, SEQ ID NO: 188 (protein)
chain: VDGFGDVGALESLRGNADLAYILSMEPCGHCLIINNVNFCRESGLRTRTGSNIDCEKLRRRFSSLHFMVEVKGDLTAKKMVLALLELARQDHGALDCCVVVILSHGCQASHLQFPGAVYGTDGCPVSVEKIVNIFNGTSCPSLGGKPKLFFIQACGGEQKDHGFEVASTSPEDESPGSNPEPDATPFQEGLRTFDQLEAISSLPTPSDIFVSYSTFPGFVSWRDPKSGSWYVETLDDIFEQWAHSEDLQSLLLRVANAVSVKGIYKQMPGCFNFLRKKLFFKTSASRA
On to B1, for which, in the data set with PG13, the “CD19 mean fluorescence intensity (MFI)” value was “enhanced CD19 mean fluorescence intensity” and the viral titers result is recorded as “higher viral titers”. In the data set with HEK293T/16 cells, the “effect on basal / catalytic activity” value is recorded as “less basal activity than wild type Caspase-9”.

B2: D330V: chimeric modified Caspase-9 polypeptide (protein)
chain: B1 chain with E198V
Take B2: the “effect on basal / catalytic activity” value with HEK293T/16 cells is reported as “less basal activity than wild type Caspase-9”.

B3: F404Y: chimeric modified Caspase-9 polypeptide (protein)
chain: B1 chain with E198D, F272Y
Consider B3, for which the “killing of target T cells” value in the data set on Primary T cells is listed as “can kill target T cells indistinguishable from wild type Caspase-9 polypeptide or D330A within 10 days”.

B4: D330S: chimeric modified Caspase-9 polypeptide (protein)
chain: B1 chain with E198S
Take B4: the “effect on basal / catalytic activity” value in the data set on HEK293T/16 cells was “less basal activity than wild type Caspase-9”.

B5: D330G: chimeric modified Caspase-9 polypeptide (protein)
chain: B1 chain with E198G
In the case of B5, the “effect on basal / catalytic activity” value in the data set with HEK293T/16 cells is reported as “less basal activity than wild type Caspase-9”.

B6: D330A: chimeric modified Caspase-9 polypeptide, SEQ ID NO: 24 (protein)
chain: GFGDVGALESLRGNADLAYILSMEPCGHCLIINNVNFCRESGLRTRTGSNIDCEKLRRRFSSLHFMVEVKGDLTAKKMVLALLELARQDHGALDCCVVVILSHGCQASHLQFPGAVYGTDGCPVSVEKIVNIFNGTSCPSLGGKPKLFFIQACGGEQKDHGFEVASTSPEDESPGSNPEPDATPFQEGLRTFDQLAAISSLPTPSDIFVSYSTFPGFVSWRDPKSGSWYVETLDDIFEQWAHSEDLQSLLLRVANAVSVKGIYKQMPGCFNFLRKKLFFKTS
For B6, in the data set on PG13, the “CD19 mean fluorescence intensity (MFI)” value was “enhanced CD19 mean fluorescence intensity”. Also, in the data set with PG13, the viral titers result is “higher viral titers”. In addition, in the data set on Primary T cells, the “sensitivity to AP1903 / killing of target cells” value was “more sensitive to AP1903 at low titers and kills at least as well as WT Caspase-9”. Also, the “IC50 of AP1903” value with Primary T cells (6 healthy donors, AP1903 0-100 nM, 24 hours) was “significantly lower”. In addition, the “relative SEAP activity Units (basal, without AP1903)” value was 148928 in the data set on HEK293T/16 cells (1 μg iCasp9 per million cells) and 136863 with HEK293T/16 cells (2 μg iCasp9 per million cells). Further, the “effect on basal / catalytic activity” value with HEK293T/16 cells is “lowered basal activity, but not as low as in N405Q; also recorded: less basal activity than wild type Caspase-9”.

B7: N405Q: chimeric modified Caspase-9 polypeptide, SEQ ID NO: 26 (protein)
chain: B6 chain with A196D, N271Q
As to B7, in the data set on PG13, the “CD19 mean fluorescence intensity (MFI)” value is listed as “enhanced CD19 mean fluorescence intensity” and the viral titers result was “higher viral titers”. For the same molecule, in the data set with Primary T cells, the “sensitivity to AP1903 / killing of target cells” value is “less sensitive to AP1903 and cannot kill target cells as efficiently within 24 hours”; the “killing of target T cells” value is “can kill target T cells indistinguishable from wild type Caspase-9 polypeptide or D330A within 10 days”. Further, the “relative SEAP activity Units (basal, without AP1903)” value in the data set with HEK293T/16 cells (1 μg iCasp9 per million cells) is listed as 179081. The “relative SEAP activity Units (basal, without AP1903)” value in the data set on HEK293T/16 cells (2 μg iCasp9 per million cells) worked out at 175529. Besides, the “effect on basal / catalytic activity” value in the data set with HEK293T/16 cells was “lowered basal activity; also recorded: lower basal activity than D330A”.
